According to patent US20240209109A1:

What follows are binders tested against human CD40-His protein (human) (UniProt P25942) (assay: SPR Biacore T200, antibody captured on Protein A, CD40-His injected).
human CD40-His protein (human), sequence (P25942 21-193 limits assumed): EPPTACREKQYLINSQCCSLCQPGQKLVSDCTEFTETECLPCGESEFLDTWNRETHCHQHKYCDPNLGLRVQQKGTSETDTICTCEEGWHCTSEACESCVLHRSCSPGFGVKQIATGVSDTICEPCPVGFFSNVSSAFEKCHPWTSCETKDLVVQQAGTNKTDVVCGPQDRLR

Binder | Kd | koff | kon
2p931 anti-Claudin 18.2/CD40 bispecific antibody (bispecific antibody, part only; not given: Claudin 18.2 Fab arms, constant regions, linker, V domains shown, not shown: another chain or arm of the molecule; a dimerising Fc or GST; small tags and cut ends) VHH: AVQLVESGGGLVQPGGSLRLSCAASGFSFRNYMMNWVRQAPGKGLECLSSITSAGDITSYTESVKGRFTISRDNAKNTLYLQMNSLKPEDTAVYYCAQGGCGNYYRESWGQGTQVTVSS | 86.2 nM | 0.00409 s⁻¹ | 47400 M⁻¹ s⁻¹
2p957 anti-Claudin 18.2/CD40 bispecific antibody (bispecific antibody, part only; not given: Claudin 18.2 Fab arms, constant regions, linker, V domains shown, not shown: another chain or arm of the molecule; a dimerising Fc or GST; small tags and cut ends) VHH: PVQLVESGGGLVQPGGSLRLSCAASGFSFRNYIMSWVRQAPGKGLEWLSSITNSGGITSYTESVKGRFTISRDNAKNTLYLQMNSLKPEDTAVYYCAQGGSDNYYRGSWGQGTQVTVSS | 2310 nM | 0.107 s⁻¹ | 46400 M⁻¹ s⁻¹
2p834 anti-Claudin 18.2/CD40 bispecific antibody (bispecific antibody, part only; not given: Claudin 18.2 Fab arms, constant regions, linker, V domains shown, not shown: another chain or arm of the molecule; a dimerising Fc or GST; small tags and cut ends) VHH: QSQLVESGGGLVQPGGSLRLSCAASGFAFRRYTMSWVRQAPGKGLEWVSTITHNGSITTYAESAQGRFTISRDNAKNTLYLQMNSLKPEDTAVYYCAQGGGSNYYRESWGQGTQVTVSS | 90.6 nM | 0.0084 s⁻¹ | 92700 M⁻¹ s⁻¹
2p1130 anti-Claudin 18.2/CD40 bispecific antibody (bispecific antibody, part only; not given: Claudin 18.2 Fab arms, constant regions, linker, V domains shown, not shown: another chain or arm of the molecule; a dimerising Fc or GST; small tags and cut ends) VHH: EVQVVESGGGLVQPGGSLRLTCAASGFSVDDYGIGWFRQAPGREREGVACITPNGLMMNFANTVGSVAGRFSASRDSGENTVSLQMSSLKPEDTAIYFCAHSRDDSCRGSLSDYDDWGQGTQVTVSS | 2770 nM | 0.0705 s⁻¹ | 25400 M⁻¹ s⁻¹
2p415 anti-Claudin 18.2/CD40 bispecific antibody (bispecific antibody, part only; not given: Claudin 18.2 Fab arms, constant regions, linker, V domains shown, not shown: another chain or arm of the molecule; a dimerising Fc or GST; small tags and cut ends) VHH: QLHFVESGGGLVQPGGSLRLSCAASGFTLDHYAMGWFRQAPGKEREGVSCISGGGSTRYADSAKGRFTISRDNAKNTVYLQMNSLTPEDTAVYYCAAARLLSRNCVPRDSGSWGQGTQVTVSS | 754 nM | 0.0447 s⁻¹ | 59300 M⁻¹ s⁻¹
2p442 anti-Claudin 18.2/CD40 bispecific antibody (bispecific antibody, part only; not given: Claudin 18.2 Fab arms, constant regions, linker, V domains shown, not shown: another chain or arm of the molecule; a dimerising Fc or GST; small tags and cut ends) VHH: QVQLVESGGGLVQPGGSLRLSCVASGFTLDYFAIGWFRQAPGKEREGVSCISGGGSTRYADSVKGRFTISRDNAKNTVYLQMNSLTPEDTAVYYCAAARLLSRNCVPRDSGSWGQGTQVTVSS | 1030 nM | 0.045 s⁻¹ | 43700 M⁻¹ s⁻¹
2p551 anti-Claudin 18.2/CD40 bispecific antibody (bispecific antibody, part only; not given: Claudin 18.2 Fab arms, constant regions, linker, V domains shown, not shown: another chain or arm of the molecule; a dimerising Fc or GST; small tags and cut ends) VHH: QLHFVESGGGLVQPGGSLRLSCAASGFTLDYYAIGWFRQAPGKEREGVSCISGGGSTRYADSVKGRFTISRDNAKNTVYLQMNSLTPEDTAVYYCAAARLLSTNCVPRDSGSWGQGTQVTVSS | 492 nM | 0.0177 s⁻¹ | 36100 M⁻¹ s⁻¹

Now from value to binder:

Kd | koff | kon | Binder
935 nM | 0.0118 s⁻¹ | 12700 M⁻¹ s⁻¹ | 42p495 anti-Claudin 18.2/CD40 bispecific antibody (bispecific antibody, part only; not given: Claudin 18.2 Fab arms, constant regions, linker, V domains shown, not shown: another chain or arm of the molecule; a dimerising Fc or GST; small tags and cut ends) VHH: PVQLVESGGNLVQPGGSLRLSCVAPGFTSRNSAMSWVRQAPGKGLEWVSTIYSGKSNTDYADSVKGRFTISTDNAKNTLYLHMNKLKSEDTAVYYCAKGAASDWYVPRDYWGQGTQVTVSS
760 nM | 0.0374 s⁻¹ | 49100 M⁻¹ s⁻¹ | 42p155 anti-Claudin 18.2/CD40 bispecific antibody (bispecific antibody, part only; not given: Claudin 18.2 Fab arms, constant regions, linker, V domains shown, not shown: another chain or arm of the molecule; a dimerising Fc or GST; small tags and cut ends) VHH: PSQLVESGGGLVQPGGSLRLSCAASGFAFRSYTMSWVRQAPGKGLEWVSTITHNGAITTYAESAQGRFTISRDNAKNTLYLQMNSLKPEDTAVYYCAQGGGSNYYRESWGQGTQVTVSS
2490 nM | 0.107 s⁻¹ | 42700 M⁻¹ s⁻¹ | 3p78 anti-Claudin 18.2/CD40 bispecific antibody (bispecific antibody, part only; not given: Claudin 18.2 Fab arms, constant regions, linker, V domains shown, not shown: another chain or arm of the molecule; a dimerising Fc or GST; small tags and cut ends) VHH: PVQLVESGGGLVQPGGSLRLSCAASGFTFRNYAMSWVRQAPGKGLEWVSTITHNGAITTYAESAQGRFTISRDNAKNTLYLQMNSLKPEDTAVYYCAQGGGSNYYRESWGQGTQVTVSS
47.5 nM | 0.00442 s⁻¹ | 93100 M⁻¹ s⁻¹ | 42p655 anti-Claudin 18.2/CD40 bispecific antibody (bispecific antibody, part only; not given: Claudin 18.2 Fab arms, constant regions, linker, V domains shown, not shown: another chain or arm of the molecule; a dimerising Fc or GST; small tags and cut ends) VHH: AVQLVESGGGLVQPGGSLRLSCAASGFAFRRYTMSWVRQAPGKGLEWVSSITDNGSITTYAESAQGRFTISRDNAKNTLYLQMNSLKPEDTAVYHCAQGGGSNYYRESWGQGTQVTVSS
182 nM | 0.0187 s⁻¹ | 103000 M⁻¹ s⁻¹ | 2p1294 anti-Claudin 18.2/CD40 bispecific antibody (bispecific antibody, part only; not given: Claudin 18.2 Fab arms, constant regions, linker, V domains shown, not shown: another chain or arm of the molecule; a dimerising Fc or GST; small tags and cut ends) VHH: QVQLVESGGGLVQPGGSLRLSCAASGFSFRRYTMSWVRQAPGKGLEWVSAISDNGAITTYTESAQGRFTISRDNAKNTLYLQMNSLKPEDTAVYYCAQGGGSNYYRESWGQGTQVTVSS
